Test results: US20240218054A1 (MABLOC, published 2024)

B1: ADI-48900 (antibody, V domains shown)
VH: EVQLQESGPGLVKPSGTLSLTCAVSGGSISSSDWWSWVRQPPGKGLEWIGEIYHSGSTSYNPSVKSRVSISVDKSKNQFSLQLSSVTAADTAIYYCARVNPPQYSSGWYSVYWGQGTLVTVSS
VL: QSVVTQPPSVSAAPGQKVTISCSGSSSNIGNNYVSWYQQLSETAPKLLIYDNNKRPSGIPNRFSGSKSGTSATLGITGLQTGDEADYYCGTWDNSLGAVVFGGGTKVTVL
notes: full-length IgG; also called Antibody Number 13
B2: ADI-50539 (antibody, V domains shown)
VH: EVQLVESGPGLVKPSGTLSLTCAVSGGSISSSNWWSWVRQPPGKGLEWIGEIYHSGSTNYNPSLKSRVTISVDKSKNQFSLKLSSVTAADTAVYYCARARWEDGNYYYGMDVWGQGTTVTVSS
VL: QPVLTQPPSVSAAPGQKVTISCSGSSSNIGNNYVSWYQQLPGTAPKLLIYDNNKRPSGIPDRFSGSKSGTSATLGITGLQTGDEADYYCGTWDSSLSAVVFGGGTKVTVL
notes: full-length IgG; also called Antibody Number 134
B3: ADI-42114 (antibody, V domains shown)
VH: EVQLLESGGGLVKPGGSLRLSCAASGFTFSSYSMNWVRQAPGKGLEWVSSISSSSSYIYYADSVKGRFTISRDNAKNSLYLQMNSLRAEDTAVYYCARDSWGPFDYWGQGTLVTVSS
VL: QSVLTQPPSVSAAPGQKVTISCSGSSSNIGNNYVSWYQQLPGTAPKLLIYDNNKRPSGIPDRFSGSKSGTSATLGITGLQTGDEADYYCGTWDSSLSAKVFGGGTKLTVL
notes: full-length IgG; also called Antibody Number 143
B4: ADI-42206 (antibody, V domains shown)
VH: QVQLVQSGGGLVQPGGSLRLSCAASGFTFSDHYMDWVRQAPGKGLEWVGRIRNKVNSYTTEYAASVKGRFTISRDDSKNSLYLQMNSLKTEDTAVYYCGRDRGWLDIWGQGTMVTVSS
VL: QSVLTQPASVSGSPGQSITISCTGTSSDVGGYNYVSWYQQHPGKAPKLMIYDVTNRPSGVSNRFSGSRSGNTASLTISGLQAEDEADYYCSSYTRSSTRVFGGGTKLTVL
notes: full-length IgG; also called Antibody Number 132
B5: ADI-50537 (antibody, V domains shown)
VH: QVQLVQSGSELKKPGASVKVSCKASGYTFTSYAMNWVRQAPGQGLEWMGWINTNTGNPTYAQGFTGRFVFSLDTSVSTAYLQISSLKAEDTAVYYCARGYCSSTSCYGGLYWFDPWGQGTLVTVSS
VL: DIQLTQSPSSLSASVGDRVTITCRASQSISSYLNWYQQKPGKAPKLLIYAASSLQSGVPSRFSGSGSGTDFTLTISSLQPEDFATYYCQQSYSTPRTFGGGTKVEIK
notes: full-length IgG; also called Antibody Number 139
B6: ADI-49137 (antibody, V domains shown)
VH: EVQLVESGGGLVQPGGSLRLSCAASGFIFSDHYMAWVRQAPGKGLEWVGHVGNKANTYTTEYAASVKGRFTISRDDSKKSLYLQMNRLKSEDTAVYYCARVFSYYLDYWGQGTPVTVSS
VL: EIVLTQSPGTLALSPGERATLSCRASQSVSSYLAWYQQKPGQAPRLLIYDSSNRATGIPARFSGSGSGTDFTLTISSLEPEDFAVYYCQQPGNWPPAFTFGGGTKLEIK
notes: full-length IgG; also called Antibody Number 126
B7: ADI-48951 (antibody, V domains shown)
VH: EVQLLESGPGLVKPSGTLSLTCAVSGASISSNNWWSWVRQSPGKGLEWIGEIFHSGTTNYNPSLKSRVTISVDKSKNQFSLKLNSVTAADTAVYYCARDVGVAAVITGSVRWGQGTLVTVSS
VL: DIVLTQSPDSLAVSLGERAAINCKSSQSVFFSSDNKNYLAWYQQKPGQPPKLLIYWASTRESGVPDRFSGSGSGTDFTLTISSLQAEDVAVYYCQQFYTTPSTFGQGTKVEIK
notes: full-length IgG; also called Antibody Number 138
B8: ADI-42124 (antibody, V domains shown)
VH: EVQLLESGGGLVQPGGSLRLSCAASGFTFSSYAMSWVRQAPGKGLELVSAISSSGGSTYYADSVKGRFTISRDNSKNTLYLQMNSLRAEDTALYYCAKDLFYDFWTGITIDYWGQGTLVTVSS
VL: QPVLTQPRSVSGSPGQSVTISCTGTSSDVGGYNYVSWYQQHPGKAPKLMIYDVSKRPSGVPDRFSGSKSGNTASLTISGLQAEDEADYYCCSYAGSYTFVLFGGGTKLTVL
notes: full-length IgG
B9: ADI-46737 (antibody, V domains shown)
VH: QVQLVQSGGGVVQPGRSLRLSCAASGFTFSSYAMHWVRQAPGKGLEWVAVISYDGSNKYYADSVKGRFTISRDNSKNTLYLQMNSLRAEDTAVYYCARDGAGDYIWGSYRHKGLHYYYGMDVWGQGTTVTVSS
VL: DIQLTQSPSSLSASVGDRVTITCRASQGIRNDLGWYQQKPGKAPKRLIYAASSLQSGVPSRFSGSGSGTEFTLTISSLQPEDFATYYCLQHNSYPLTFGGGTKVEIK
notes: full-length IgG; also called Antibody Number 140
B10: ADI-42817 (antibody, V domains shown)
VH: QVTLKESGPTLVKPTQTLTLTCTFSGFSLSTSGVGVGWTRQPPGKALEWLALIYWDDDKRYSPSLKSRLTITKDTSKNQVVLTMTKMDPVDTATYYCAHRHIAARLYRDDDVFDVWGQGTMVTVSS
VL: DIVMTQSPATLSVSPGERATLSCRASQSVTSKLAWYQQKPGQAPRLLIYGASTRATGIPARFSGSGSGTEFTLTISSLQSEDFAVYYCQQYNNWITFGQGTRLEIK
notes: full-length IgG
B11: ADI-42186 (antibody, V domains shown)
VH: QVQLQQSGPGLVKPSQTLSLTCAISGDSVSTNSAAWNWIRQSPSRGLEWLGRTYYRSKWYNDYALSVKSRITIKPDTSKNQFSLQLNSVTPEDTAVYYCAREGAGYYDSSGYYPLSYDAFDIWGRGTMVTVSS
VL: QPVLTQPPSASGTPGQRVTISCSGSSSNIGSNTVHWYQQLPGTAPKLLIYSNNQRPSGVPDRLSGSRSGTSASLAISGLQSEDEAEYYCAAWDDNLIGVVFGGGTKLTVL
notes: full-length IgG; also called Antibody Number 130
B12: ADI-46724 (antibody, V domains shown)
VH: QVQLQESGPGLVEPSGTLSLTCVVTGDSISSRSWWSWVRQPPGKGLEWIGEIYHSGTTTYSPSLKSRVIISLDKSENHFSLKMTSVTAADTAVYYCARVIRDLRDYYDGSGYGPDAFDIWGQGTTVTVSS
VL: QPVLTQPPSVSAAPGQKVTISCSGSSSNIGSNFVSWYQQFPGTAPKLLIYDDNKRPSGIPDRFSGSKSGTSATLGITGLQTGDEADYYCETWDSRLSVVFGGGTKLTVL
notes: full-length IgG; also called Antibody Number 133
B13: ADI-49194 (antibody, V domains shown)
VH: EVQLVESGGAVVQPGRSLRLSCAASGFTFSSYGMHWVRQAPGKGLESVAVIWYDGSNKNYADSVKGRFTISRDNSKNTLFLQMNSLRAEDSAMYYCAKTYDSRAYYYLDYWGQGTLVTVSS
VL: ETTLTQSPSTLSTSVGDRVTITCRASQSISSWLAWYQQKPGKAPKLLIYRASSLETEVPSRFSGSGSGTDFTLTISRLQPDDFATYFCQQYNRYPYTFGQGTKLEIK
notes: full-length IgG
B14: ADI-48890 (antibody, V domains shown)
VH: EVQLVESGGGLVQPGGSLRLSCAASGFTFSDHYMDWVRQAPGKGLEWVGRARNRANSYTTEYAASVKGRFAASRDDSKNSLYLQMNSLKTEDTAVYYCARVRGSYWDYWGQGTLVTVSS
VL: QSALTQPPSASGSPGQSVTISCTGTSSDVGGYNYVSWYQQHPGKAPKLMIYEVSKRPSGVPDRFSGSKSGNTASLTVSGLQAEDEADYYCSSFAGSNNLYVFGTGTKVTVL
notes: full-length IgG
B15: ADI-50218 (antibody, V domains shown)
VH: QVQLVQSGAEVKKPGASVKVSCKASGYTFTSYDINWVRQATGQGLEWMGWMNPNSGNTGYAQKFQGRVTMTRNTSISTAYMELSSLRSEDTAVYYCARGLNTVTNSDYWGQGTLVTVSS
VL: DIQLTQSPSSVSASVGDRVTITCRASQGISSWLAWYQQKPGKAPKLLIYAASSLQSGVPSRFSGSGSGTDFTLTISSLQPEDFATYYCQQANSFPWTFGQGTKVDIK
notes: full-length IgG; also called Antibody Number 128
B16: ADI-42217 (antibody, V domains shown)
VH: EVQLVESGGGVVQPGRSLRLSCADSGFTFSYSAIHWVRQAPGKGLEWVAVISYDGSNKYYADSVKGRFTISRDNSKNTLYLQMNSLRPEDTAVYYCARHSGGYSSKDKPTEYFQHWGQGTLVTVSS
VL: QSVLTQPPSVSGAPGQRVTISCTGSSSDIGAGYDVHWYQQLPGTAPKLLIYGNTNRPSGVPDRFSGSKSGTSASLAITGLQAEDEADYYCQSYDSSLSGVVFGGGTKLTVL
notes: full-length IgG
B17: ADI-48950 (antibody, V domains shown)
VH: EVQLVESGGGVVQPGRSLRLSCAVSGFTFSTSPLHWVRQAPGKGLEWVAVSSFVATDKYYADSVKGRFTVSRDNSKNTLYLQMNSLRPEDTAVYYCARGFGELPGFDIWGQGTMVTVSS
VL: SYVLTQPPSASGSPGQSVTISCTGTSSDFGGYNYVSWYQQHPGKAPKLMVYEVAKRPSGVPDRFSGSKSGNTASLTVSGLQAEDEADYYCSSYAGSNNFVVFGGGTKLTVL
notes: full-length IgG; also called Antibody Number 142

Biological target: T1, recombinant YFV E protein (soluble E, sE; YFV Asibi strain) (Yellow fever virus, Asibi strain, UniProt Q6DV88 286-678)
T1 construct: also called YFV E antigen; YFV E monomer
T1 sequence (Q6DV88 286-678): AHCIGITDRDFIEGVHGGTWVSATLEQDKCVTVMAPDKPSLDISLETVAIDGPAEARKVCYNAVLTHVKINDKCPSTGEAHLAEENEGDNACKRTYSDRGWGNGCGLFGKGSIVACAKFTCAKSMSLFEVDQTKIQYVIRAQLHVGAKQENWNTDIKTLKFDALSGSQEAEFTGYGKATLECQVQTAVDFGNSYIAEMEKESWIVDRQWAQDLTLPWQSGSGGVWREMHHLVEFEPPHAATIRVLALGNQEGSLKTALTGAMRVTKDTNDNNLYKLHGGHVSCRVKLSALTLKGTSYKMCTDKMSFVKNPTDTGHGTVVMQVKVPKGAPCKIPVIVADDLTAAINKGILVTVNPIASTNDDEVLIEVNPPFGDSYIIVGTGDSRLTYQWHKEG
Assay: BLI monovalent (IgG on tip)

**Q.** For B1, which Kd is on record?
**A.** Its Kd is 26.2 nM.

**Q.** Which Kd does the source give for B2 here?
**A.** The Kd was greater than 100 nM.

**Q.** For B3, which Kd is on record?
**A.** The Kd was greater than 100 nM.

**Q.** How did the Kd turn out when B4 was run?
**A.** The Kd was 1.73 nM.

**Q.** How did the Kd turn out when B5 was run?
**A.** The Kd was greater than 100 nM.

**Q.** How did the Kd turn out when B6 was run?
**A.** The Kd was 0.854 nM.

**Q.** For B7, which Kd is on record?
**A.** The Kd was 2.67 nM.

**Q.** Which Kd does the source give for B8 here?
**A.** The Kd was 5.88 nM.

**Q.** Which Kd does the source give for B9 here?
**A.** The Kd was greater than 100 nM.

**Q.** For B10, which Kd is on record?
**A.** The Kd was 4.15 nM.

**Q.** How did the Kd turn out when B11 was run?
**A.** The Kd was 1.21 nM.

**Q.** For B12, which Kd is on record?
**A.** Its Kd is greater than 100 nM.

**Q.** How did the Kd turn out when B13 was run?
**A.** The Kd was 234 nM.

**Q.** Which Kd does the source give for B14 here?
**A.** The Kd was greater than 100 nM.

**Q.** B15 was tested. Which Kd did it give?
**A.** Its Kd is greater than 100 nM.

**Q.** Which Kd does the source give for B16 here?
**A.** Its Kd is 4 nM.

**Q.** For B17, which Kd is on record?
**A.** The Kd was 1.53 nM.
